Data published in the supplement of paper PMC9112550, “Optimization of the antimicrobial peptide Bac7 by deep mutational scanning” (BMC Biology, 2022).

test system: Escherichia coli TOP10; test: shrunken log2 fold change of peptide-encoding DNA abundance (4.5 h post-induction vs induction); higher = less antimicrobial activity (less host growth inhibition); conditions: time post-induction: 4.5 h; library: site-saturation at positions 5, 18, 19, 20
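Also: peptides expressed intracellularly from a pBAD plasmid library in pooled LB shake-flask culture, induced with 0.3% L-arabinose, DNA abundance read by NGS, three biological replicates, DESeq2 with apeglm shrinkage.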

| Sequence | shrunken log2 fold change |
| --- | --- |
| RRIRRRPPRLPRPRPRPFDPPRP | 0.504 |
| RRIRSRPPRLPRPRPRPLCAPRP | 0.281 |
| RRIRDRPPRLPRPRPRPGLRPRP | 0.277 |
| RRIRMRPPRLPRPRPRPHEFPRP | 0.224 |
| RRIRWRPPRLPRPRPRPFPQPRP | 0.0229 |
| RRIRWRPPRLPRPRPRPLFPPRP | 0.0582 |
| RRIRVRPPRLPRPRPRPGNIPRP | -0.116 |
| RRIRDRPPRLPRPRPRPLAIPRP | 0.0447 |
| RRIRERPPRLPRPRPRPKIHPRP | -0.233 |
| RRIRIRPPRLPRPRPRPLAYPRP | -0.132 |
| RRIRKRPPRLPRPRPRPCIRPRP | -0.049 |
| RRIRFRPPRLPRPRPRPENSPRP | -3.45e-05 |
| RRIRLRPPRLPRPRPRPGQMPRP | 0.482 |
| RRIRDRPPRLPRPRPRPTLTPRP | 0.717 |
| RRIRPRPPRLPRPRPRPYVYPRP | -0.636 |
| RRIRARPPRLPRPRPRPKPGPRP | 0.644 |
| RRIRMRPPRLPRPRPRPGQLPRP | 0.0406 |
| RRIRHRPPRLPRPRPRPWGMPRP | -0.0998 |
| RRIRNRPPRLPRPRPRPSICPRP | -0.328 |
| RRIRDRPPRLPRPRPRPNQRPRP | -0.264 |
| RRIRRRPPRLPRPRPRPNFSPRP | 0.211 |
| RRIRIRPPRLPRPRPRPGHNPRP | -0.0704 |
| RRIRIRPPRLPRPRPRPMHAPRP | 0.325 |
| RRIRSRPPRLPRPRPRPYFNPRP | -0.626 |
| RRIRDRPPRLPRPRPRPHLRPRP | -0.00431 |

| Sequence | shrunken log2 fold change |
| --- | --- |
| RRIRCRPPRLPRPRPRPYIYPRP | -0.945 |
| RRIRKRPPRLPRPRPRPIMVPRP | 0.248 |
| RRIRERPPRLPRPRPRPLDAPRP | -0.17 |
| RRIRVRPPRLPRPRPRPNQRPRP | 0.0593 |
| RRIRKRPPRLPRPRPRPFSKPRP | -0.0535 |
| RRIRVRPPRLPRPRPRPRHVPRP | 0.0785 |
| RRIRPRPPRLPRPRPRPHKTPRP | -0.0296 |
| RRIRARPPRLPRPRPRPDLNPRP | 0.473 |
| RRIRFRPPRLPRPRPRPMMYPRP | -0.104 |
| RRIRLRPPRLPRPRPRPKPEPRP | 0.249 |
| RRIRWRPPRLPRPRPRPHKYPRP | -0.652 |
| RRIRMRPPRLPRPRPRPSYLPRP | -0.336 |
| RRIRGRPPRLPRPRPRPTSHPRP | 0.64 |
| RRIRWRPPRLPRPRPRPSIQPRP | -0.0487 |
| RRIRSRPPRLPRPRPRPGAYPRP | -0.0377 |
| RRIRSRPPRLPRPRPRPNRWPRP | -0.0554 |
| RRIRGRPPRLPRPRPRPPDPPRP | 1.57 |
| RRIRHRPPRLPRPRPRPPHDPRP | 0.047 |
| RRIRGRPPRLPRPRPRPDQVPRP | 0.656 |
| RRIRPRPPRLPRPRPRPPDGPRP | 0.067 |
| RRIRMRPPRLPRPRPRPECMPRP | 2.53 |
| RRIRWRPPRLPRPRPRPSSDPRP | -0.0856 |
| RRIRDRPPRLPRPRPRPNSIPRP | -0.211 |
| RRIRLRPPRLPRPRPRPASHPRP | 0.0961 |
| RRIRYRPPRLPRPRPRPVHWPRP | 0.0233 |

| Sequence | shrunken log2 fold change |
| --- | --- |
| RRIRPRPPRLPRPRPRPTHCPRP | 0.1 |
| RRIRERPPRLPRPRPRPTIPPRP | -0.475 |
| RRIRCRPPRLPRPRPRPLNWPRP | 0.0486 |
| RRIRCRPPRLPRPRPRPTAMPRP | -0.113 |
| RRIRTRPPRLPRPRPRPYMSPRP | -0.0144 |
| RRIRRRPPRLPRPRPRPKHHPRP | 0.346 |
| RRIRRRPPRLPRPRPRPPDDPRP | 0.743 |
| RRIRMRPPRLPRPRPRPINEPRP | -0.0839 |
| RRIRLRPPRLPRPRPRPRNHPRP | -0.44 |
| RRIRTRPPRLPRPRPRPHVCPRP | -0.04 |
| RRIRYRPPRLPRPRPRPSPVPRP | -0.612 |
| RRIRLRPPRLPRPRPRPDISPRP | 0.0207 |
| RRIRTRPPRLPRPRPRPPLTPRP | 0.13 |
| RRIRNRPPRLPRPRPRPITDPRP | -1.28 |
| RRIRMRPPRLPRPRPRPKAKPRP | 0.0227 |
| RRIRDRPPRLPRPRPRPNPQPRP | -0.19 |
| RRIRKRPPRLPRPRPRPEWLPRP | 0.576 |
| RRIRTRPPRLPRPRPRPFNDPRP | -0.136 |
| RRIRDRPPRLPRPRPRPGRNPRP | -0.495 |
| RRIRCRPPRLPRPRPRPKGSPRP | 0.189 |
| RRIRFRPPRLPRPRPRPGVCPRP | 0.307 |
| RRIRERPPRLPRPRPRPKQHPRP | 0.241 |
| RRIRFRPPRLPRPRPRPSLQPRP | -0.31 |
| RRIRKRPPRLPRPRPRPSEEPRP | 0.1 |
| RRIRIRPPRLPRPRPRPNHVPRP | -0.278 |

| Sequence | shrunken log2 fold change |
| --- | --- |
| RRIRDRPPRLPRPRPRPRVPPRP | 0.523 |
| RRIRHRPPRLPRPRPRPHGIPRP | -0.0284 |
| RRIRDRPPRLPRPRPRPYETPRP | -0.198 |
| RRIRCRPPRLPRPRPRPGACPRP | 0.257 |
| RRIRKRPPRLPRPRPRPQICPRP | -0.0742 |
| RRIRRRPPRLPRPRPRPEKFPRP | 0.171 |
| RRIRMRPPRLPRPRPRPFAQPRP | 0.0306 |
| RRIRPRPPRLPRPRPRPMQNPRP | 0.201 |
| RRIRPRPPRLPRPRPRPMAPPRP | -0.0483 |
| RRIRYRPPRLPRPRPRPGHFPRP | -0.0316 |
| RRIRARPPRLPRPRPRPLQNPRP | 0.698 |
| RRIRKRPPRLPRPRPRPTWMPRP | 0.466 |
| RRIRERPPRLPRPRPRPQEVPRP | -0.0156 |
| RRIRMRPPRLPRPRPRPHAYPRP | 0.0623 |
| RRIRGRPPRLPRPRPRPASKPRP | 0.453 |
| RRIRCRPPRLPRPRPRPEQGPRP | -0.205 |
| RRIRTRPPRLPRPRPRPYAGPRP | -0.14 |
| RRIRCRPPRLPRPRPRPLHHPRP | -0.469 |
| RRIRMRPPRLPRPRPRPGKQPRP | -0.00189 |
| RRIRERPPRLPRPRPRPGNWPRP | -0.0108 |
| RRIRKRPPRLPRPRPRPYMRPRP | -0.0194 |
| RRIRHRPPRLPRPRPRPAGKPRP | 0.0288 |
| RRIRHRPPRLPRPRPRPVCHPRP | -0.198 |
| RRIRMRPPRLPRPRPRPEQKPRP | -0.0148 |
| RRIRARPPRLPRPRPRPFAYPRP | -0.289 |

| Sequence | shrunken log2 fold change |
| --- | --- |
| RRIRCRPPRLPRPRPRPEVMPRP | -0.0567 |
| RRIRPRPPRLPRPRPRPCADPRP | 0.213 |
| RRIRCRPPRLPRPRPRPQCLPRP | -0.442 |
| RRIRYRPPRLPRPRPRPREGPRP | 0.251 |
| RRIRFRPPRLPRPRPRPSSNPRP | -0.715 |
| RRIRIRPPRLPRPRPRPLKTPRP | 0.0161 |
| RRIRGRPPRLPRPRPRPKWWPRP | 1.13 |
| RRIRKRPPRLPRPRPRPKKLPRP | 0.16 |
| RRIRVRPPRLPRPRPRPNITPRP | -0.808 |
| RRIRCRPPRLPRPRPRPHAGPRP | 0.185 |
| RRIRNRPPRLPRPRPRPSQKPRP | -0.0723 |
| RRIRYRPPRLPRPRPRPVSCPRP | -0.0731 |
| RRIRERPPRLPRPRPRPTPTPRP | 0.174 |
| RRIRERPPRLPRPRPRPDTMPRP | -0.336 |
| RRIRRRPPRLPRPRPRPESNPRP | 0.219 |
| RRIRHRPPRLPRPRPRPNGHPRP | -0.0552 |
| RRIRWRPPRLPRPRPRPKCRPRP | 0.294 |
| RRIRKRPPRLPRPRPRPYPHPRP | -0.207 |
| RRIRWRPPRLPRPRPRPRTKPRP | 1.88 |
| RRIRLRPPRLPRPRPRPMKSPRP | 0.00719 |
| RRIRNRPPRLPRPRPRPKENPRP | -0.409 |
| RRIRFRPPRLPRPRPRPHRFPRP | -0.0456 |
| RRIRARPPRLPRPRPRPFFEPRP | 0.423 |
| RRIRLRPPRLPRPRPRPIELPRP | 0.00435 |
| RRIRVRPPRLPRPRPRPWYNPRP | -0.153 |
